Reference: patent US9434716B2, “Antigen binding proteins” (Glaxo Group Limited, priority 2011, dated 2016)
Entries after “also recorded” stand apart in the source; their conditions may differ.

Experiments:
circulating SAP = molecular target: T1, circulating SAP (Homo sapiens, UniProt P02743); settings: for as long as the drug is administered; cited from earlier work
T1 construct: host or cells: circulating plasma protein in vivo

[1] = initial clinical studies; cited from earlier work
human SAP [2] = molecular target: T2, human SAP (Homo sapiens, UniProt P02743); experiment: Biacore kinetics, human SAP captured on immobilised O-phosphoethanolamine; assay type: binding; settings: for binding with respect to H3L0: amino acid scan at position 91 of SAP-K L0 light chain
T2 construct: from tissue; host or cells: natural human SAP, purified
Experimental: O-phosphoethanolamine was immobilised on a Biacore CM5 chip by primary amine coupling in accordance with the manufacturer's instructions. Human SAP was then captured on the surface in the presence of calcium chloride, in order to replicate in the Biacore system in vitro, the precise orientation of SAP molecules bound to amyloid fibrils in vivo. Anti SAP antibodies were then passed over this surface at 256, 64, 16, 4, 1 nM and a binding sensorgrams obtained. Analysis was carried out at 25° C. using 4% BSA, 10 mM Tris, 140 mM NaCl, 2 mM CaCl2, 0.05% surfactant P20, 0.02% Na N3, pH 8.0 as running buffer. […] Data generated were double referenced with a buffer injection over the human SAP surface and analyzed using the bivalent analyte model in the Biacore T100 evaluation software.

human SAP [3] = molecular target: T2, human SAP; experiment: Human SAP binding ELISA, SAP-K and SAP-E hybridoma antibodies; settings: 1 μg/mL lower density coating of human SAP
Experimental: 1 μg/mL or 5 μg/mL human SAP was directly immobilised onto an ELISA plate and blocked with 1% BSA/TBS plus 0.05% TWEEN20. Anti-SAP antibodies from purified material were titrated across the plate. Bound antibody was detected by treatment with a horse-radish peroxidase (HRP)-conjugated rabbit-anti-mouse IgG antibody (Dako, P0260). The ELISA was developed using O-phenylenediamine dihydrochloride (OPD) peroxidase substrate (Sigma, P9187).

human SAP [4] = molecular target: T2, human SAP; experiment: Binding of mouse monoclonals to immobilised human SAP in vitro
Excerpt: SAP-E and SAP-K are from two groups of anti-SAP monoclonals, each group having been tested separately for their binding to human SAP in vitro.
SAP-K was selected from among the 6 different, most avidly binding, mouse IgG2a monoclonals, derived by standard techniques from immunization with purified human SAP and a conventional fusion to produce hybridomas which were cloned by routine methods. […] This was the case regardless of whether the human SAP had been directly immobilised on plastic surfaces by non-specific adherence or by covalent attachment, or by the specific calcium dependent binding of SAP to immobilised ligands, whether amyloid fibrils or the small molecule ligand, phosphoethanolamine. SAP-K also bound well to directly immobilised SAP in the presence or absence of calcium, and if the SAP had previously been complexed with CPHPC and then covalently ‘fixed’ in the decameric SAP-CPHPC complex (Pepys, M. B. et al (2002) Targeted pharmacological depletion of serum amyloid P component for treatment of human amyloidosis. Nature, 417: 254-259; Kolstoe, S. E. et al (2009) Molecular dissection of Alzheimer's disease neuropathology by depletion of serum amyloid P component. Proc. Natl. Acad. Sci. USA, 106: 7619-7623). SAP-E also bound well to human SAP in all these different configurations.

native human SAP = molecular target: T3, native human SAP (Homo sapiens, UniProt P02743); experiment: Double immunodiffusion in agarose gel; assay type: binding; settings: isolated pure human SAP and whole human serum
T3 construct: against both isolated pure human SAP and whole human serum; from tissue; host or cells: whole human serum, and isolated pure human SAP

[5] = tested on: mice with systemic AA amyloidosis; experiment: SAP-K in clearing amyloid deposits, mouse AA amyloidosis model (Example 15); assay type: in vivo; settings: lower doses of 1 mg, 0.5 mg and 0.1 mg per mouse
Experimental: AA amyloidosis was induced and confirmed in wild-type C57BL/6 mice as detailed in Example 10 above. After loading the amyloid deposits with human SAP also detailed in Example 10, groups of mice were treated with 50 mg per mouse of total IgG as the whole IgG fraction (batch 2866) of the sheep polyclonal anti-human SAP antiserum providing a dose of 7 mg of actual anti-SAP antibody, […], and, as a negative control, isolated purified monoclonal mouse IgG2a antibody specific for an unrelated human antigen and unreactive with either human SAP or any murine antigen. All mice were killed 17 days later for estimation of amyloid load by Congo red staining.

human SAP [6] = molecular target: T2, human SAP; experiment: Competition ELISA with chimeric anti-SAP mAb; assay type: binding; settings: human SAP coated at 5 μg/mL; purified murine mAb
Excerpt: A constant concentration of chimeric anti-SAP mAb was mixed with serial diluted (1:1) amounts of mouse anti-SAP mAbs. Plates were washed and the amount of chimeric antibody bound to the immobilised human SAP was detected using goat anti-human Kappa Light chain peroxidase conjugate (Sigma, A7164). The ELISA was developed using O-phenylenediamine dihydrochloride (OPD) peroxidase substrate (Sigma, P9187).

human SAP [7] = molecular target: T2, human SAP; experiment: Western blotting and fragment epitope mapping (CNBr, chymotrypsin); assay type: binding
Excerpt: This is consistent with the kinetic stability and resistance to denaturation of SAP (Manning, M. and Colón, W. (2004) Biochemistry, 43: 11248-11254).
B, SDS-PAGE analysis of SAP cleaved with CNBr. […] These were precisely confirmed by mass spectrometry. […] C, SDS-PAGE analysis of SAP digested with chymotrypsin. Left panel: Coomassie blue stain; lane 1, untreated control SAP; lane 2, SAP after chymotrypsin digestion, showing the expected major fragments corresponding to residues 1-140 and 145-204. These were precisely confirmed by mass spectrometry. Right panel: Western blot with SAP-E showing intense staining of intact untreated SAP in lanes 1 (500 ng loaded) and 2 (100 ng), and also residual intact SAP in lanes 3 and 4 which contained the chymotrypsin digested SAP at different loadings. Very weak binding of SAP-E to the residue 1-140 fragment is seen only in lane 3 which was most heavily loaded. […] D, Sequence comparison between human SAP (h) and mouse SAP (m) for residues 136-147. Top panel, differences indicated above by residues shown in black in the murine sequence. Bottom panel, position of this extended loop with 140Y at its apex shown in white in the 3D subunit structure of human SAP. The different residues in the murine sequence are shown in black. The grey spheres represent the calcium atoms bound in the ligand binding pocket.

human SAP [8] = molecular target: T2, human SAP; experiment: Biacore (BIAcoreX), human SAP covalently immobilised on the chip; assay type: binding; settings: mean and SD of 3 replicate measurements
human SAP [9] = molecular target: T2, human SAP; experiment: Biacore off-rate ranking, SAP immobilised on C1 chip; assay type: binding; settings: culture supernatants, chimera purified at […], single curve, for ranking, 25° C.
Experimental: Human and cynomologus monkey SAP were immobilised on a Biacore C1 chip by primary amine coupling in accordance with the manufacturer's instructions. […] All runs were double referenced with a buffer injection for purified sample or media for the supernatant samples over the human and cyno SAP surfaces. Analysis was carried out at 25° C. using HBS-EP buffer. […] Data were analysed using the 1 to 1 dissociation model within the Biacore T100 evaluation software.
The data generated in Tables 6a and 6b show off-rates (kd) of the humanised SAP-E and SAP-K antibody supernatants respectively. The values were based on a single curve and used for ranking purposes between the different constructs for binding to human SAP. […] The SAP-E humanised L1 light chain was the best light chain variant and combination of the L1 with the H1 heavy chain variant gave a humanised antibody with an acceptable off-rate whilst keeping the number of back mutations to a minimum.

[10] = CM5 chip, calcium, bivalent analyte model, 25° C., for comparison only, avidity effect

T2 sequence (P02743 20-223): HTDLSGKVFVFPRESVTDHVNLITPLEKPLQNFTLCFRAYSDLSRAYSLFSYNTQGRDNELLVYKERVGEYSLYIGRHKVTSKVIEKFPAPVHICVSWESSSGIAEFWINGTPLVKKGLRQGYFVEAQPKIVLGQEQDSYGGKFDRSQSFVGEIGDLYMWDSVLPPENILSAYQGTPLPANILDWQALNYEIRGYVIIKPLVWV
T1 sequence (P02743 20-223): as above
T3 sequence (P02743 20-223): as above

Molecule: O=C(O)[C@H]1CCCN1C(=O)CCCCC(=O)N1CCC[C@@H]1C(=O)O [CPHPC, (R)-1-[6-[(R)-2-Carboxy-pyrrolidin-1-yl]-6-oxo-hexanoyl]pyrrolidine-2-carboxylic acid]
- depletion of circulating SAP (circulating SAP): depletes almost all circulating SAP
- effect on amyloid [1]: did not produce amyloid regression

Molecule: glycine
- binding with respect to H3L0 (human SAP [2]): improved binding with respect to H3L0, but to a lesser extent than alanine

Molecule: serine
- binding with respect to H3L0 (human SAP [2]): improved binding with respect to H3L0, but to a lesser extent than alanine

Molecule: valine
- binding with respect to H3L0 (human SAP [2]): improved binding with respect to H3L0, but to a lesser extent than alanine

B1: SAP-K: mouse IgG2a monoclonal anti-human SAP antibody, VH SEQ ID NO:17, VL SEQ ID NO:19 (antibody, V domains shown)
VH: QVQLQQPGAELIKPGASVKLSCKASGYTFTSYWMHWVKQRPGQGLEWIGMIHPNSVNTNYNEKFKSKATLTVDKSSSTAYMQLNSLTSEDSAVYYCARRNDYYWYFDVWGTGTTVTVSS
VL: DIVMTQSQKFMSTSVGDRVSVTCKASQNVNSNVAWYQQKPGQSPKALIYSASYRYSGVPDRFTGSGSGTDFTLTITNVQSEDLAEYFCQQCNNYPFTFGSGTKLEIK
- binding to the immobilised human SAP (human SAP [3]): greater binding than the SAP-E
- binding to human SAP in vitro (human SAP [4]; compared within the group of monoclonals): strongest binding to SAP, within their groups; also recorded: greatest binding to immobilised human SAP
- binding to immobilised human SAP (human SAP [4]; human SAP sparsely available, plates coated with 1 μg/ml): much more SAP-K than SAP-E became bound
- binding to native human SAP (immunoprecipitation) (native human SAP): bound apparently equally well to native human SAP
- ka (human SAP [2]; [10]): 300000 M⁻¹ s⁻¹
- kd (human SAP [2]; [10]): 0.000219 s⁻¹
- effect on amyloid deposits [5]: no significant effect
- competition with SAP-E chimera (human SAP [6]): no competition
- binding to native human SAP in western blotting (human SAP [7]; after agarose gel electrophoresis in physiological buffers): bound
- binding to human SAP in western blotting from reduced SDS-PAGE (human SAP [7]; denatured human SAP): only recognises native human SAP
- ka (human SAP [8]): 3.18 ± 5 × 10^4 M^−1 sec^−1
- kd (human SAP [8]): 1.7 ± 0.9 × 10^−5 sec^−1

B2: SAP-K H1L1: humanised SAP-K, VH SEQ ID NO:38, VL SEQ ID NO:42 (antibody, V domains shown)
VH: QVQLVQSGAEVKKPGSSVKVSCKASGYTFTSYWMHWVRQAPGQGLEWMGMIHPNSVNTNYNEKFKSRVTITADKSTSTAYMELSSLRSEDTAVYYCARRNDYYWYFDVWGQGTLVTVSS
VL: DIQMTQSPSSLSASVGDRVTITCKASQNVNSNVAWYQQKPGKAPKALIYSASYRYSGVPSRFSGSGSGTDFTLTISSLQPEDFATYYCQQCNNYPFTFGQGTKLEIK
- kd (human SAP [9]): 0.0296 s⁻¹

B3: SAP-K H2L1: humanised SAP-K, VH SEQ ID NO:39, VL SEQ ID NO:42 (antibody, V domains shown)
VH: QVQLVQSGAEVKKPGSSVKVSCKASGYTFTSYWMHWVRQAPGQGLEWIGMIHPNSVNTNYNEKFKSRATITADKSTSTAYMELSSLRSEDTAVYYCARRNDYYWYFDVWGQGTLVTVSS
VL: DIQMTQSPSSLSASVGDRVTITCKASQNVNSNVAWYQQKPGKAPKALIYSASYRYSGVPSRFSGSGSGTDFTLTISSLQPEDFATYYCQQCNNYPFTFGQGTKLEIK
- kd (human SAP [9]): 0.0321 s⁻¹

B4: SAP-K H0L1: humanised SAP-K, VH SEQ ID NO:37, VL SEQ ID NO:42 (antibody, V domains shown)
VH: QVQLVQSGAEVKKPGSSVKVSCKASGGTFSSYWMHWVRQAPGQGLEWMGMIHPNSVNTNYNEKFKSRVTITADKSTSTAYMELSSLRSEDTAVYYCARRNDYYWYFDVWGQGTLVTVSS
VL: DIQMTQSPSSLSASVGDRVTITCKASQNVNSNVAWYQQKPGKAPKALIYSASYRYSGVPSRFSGSGSGTDFTLTISSLQPEDFATYYCQQCNNYPFTFGQGTKLEIK
- kd (human SAP [9]): 0.0479 s⁻¹
